Legend:
[1] = biological target: Artemia franciscana ferritin (Artemia franciscana); assay: native gel or EMSA
[2] = biological target: Artemia franciscana ferritin (Artemia franciscana); assay: cryo-EM structure

stoichiometry N [1]: 24
stoichiometry N [2]: 24
Substance: Artemia franciscana ferritin (natural protein)
